assay: yeast display, Sf9 membrane polyspecificity reagent, FACS + sequencing; frameworks hold sequencing errors
In short: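 Polyreactivity labels are assigned by the sorting gate from which each nanobody was recovered. The gates were low and high (top ~1%), set on anti-HA fluorescence for expression and streptavidin fluorescence for reagent binding. Before sorting, galactose-induced (36–48 hours) yeast display cells were stained for 1 hour at 4 °C with 10% biotinylated, detergent-solubilized Sf9 membrane reagent.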

Sequence	polyreactivity (PSR sort gate)
QVQLVESGGGLVQAGGSLRLSCAASGFTIHYYVMVWYRQAPGKERELVAAIRRGGSTSYADSVKGRFTISRDNAKNTVYLQMNSLKPEDTAVYYCAASYVSGERYDYWGQGTQVTVSS	low polyreactivity
QVQLVESGGGLVQAGGSLRLSCAASGFTIIYYAMGWYRQAPGKERELVAAITDSGGSTYYADSVKGRFTISRDNAKNTVYLQMNSLKPEDTAVYYCAARLTCSRFYYWGQGTQVTVSS	high polyreactivity
QVQLVESGGGLVQAGGSLRLSCAASGFTIKYNTMGWYRQAPGKERELVAAITSNTGSTYYADSVKGRFTISRDNAKNTVYLQMNSLKPEDTAVYYCAVTSYYRRYGYWGQGTQVTVSS	high polyreactivity
QVQLVESGGGLVQAGGSLRLSCAASGFTINFYGMGWYRQAPGKERELVAAITASGGGSTYYADSVKGRFTISRDNAKNTVYLQMNSLKPEDTAVYYCNADYTGSFYTYDYWGQGTQVTVSS	low polyreactivity
QVQLVESGGGLVQAGGSLRLSCAASGFTIPYKAMGWYRHAPGKERELVAAISRSGTRTYYADSVKGRFTISRDNAKNTVYIQMNSLKPEDTAVYYCAKDTIGGASPHYYWGQGTQVTVSS	high polyreactivity
QVQLVESGGGLVQAGGSLRLSCAASGFTIRLYAMGWYRQAPGKERELVAAITSGGSTYADSVKGRFTISRDNAKNTVYLQMNSLKPEDTAVYYCNAEALVNGGYDYWGQGTQVTVSS	high polyreactivity
QVQLVESGGGLVQAGGSLRLSCAASGFTIRRNAMGWYRQAPGKERELVAAISDRGGSTYYADSVKGRFTISRDTAKNTVYFQMTSLKPEDTAVYYCAAEPYAGPELDYWGQGTQVTVSS	high polyreactivity
QVQLVESGGGLVQAGGSLRLSCAASGFTIRRYAMGWYRQAPGKERELVAAITRSAGSTYYADSVKGRFTISRDNAKNTVYLQMNSLKPEDTAVYYCAARWTRWGADSGYYWGQGTQVTVSS	high polyreactivity
QVQLVESGGGLVQAGGSLRLSCAASGFTIRYYTMGWYRQAPGKERELVAAITWSGGRTYYADSVKGRFTISRDNAKNTVYLQMNSLKPEDTAVYYCAADVTKRASRDYYWGQGTQVTVSS	high polyreactivity
QVQLVESGGGLVQAGGSLRLSCAASGFTISYYAMGWYRQAPWKERELVASISSSGGRTYYADSVKGRFTISRDNAKNTVYLQMNSLKPEDTAVYYCAAVGGRSTRGYYWGQGTQVTVSS	high polyreactivity
QVQLVESGGGLVQAGGSLRLSCAASGFTITNYAMGWYRQAPGKERELVAAISTGGGRTYYADSVKGRFTISRDNAKNTVYLQMYSLKPEDTAVYYCAVVPYNISKTEQPGMDYWGQGTQVTVST	high polyreactivity
QVQLVESGGGLVQAGGSLRLSCAASGFTITRNTMGWYRQAPGKERELVAAITRGGSTNYADSVKGRFTISRDNAKNSVYLQMNSLKPEDTAVYYCNKGRNVVLVRTADDYWGQGTQVTVSS	low polyreactivity
QVQLVESGGGLVQAGGSLRLSCAASGFTIWWYAMRWYRQATGKERELVATITSGGRTYYADSVKGRFTISRDNAKNTDYLQMNSLKPEDTAVYYCAAESEVGYVYDPMYYWGQGTQVTVSS	high polyreactivity
QVQLVESGGGLVQAGGSLRLSCAASGFTIYAYTMGWYRQAPGKERDLVASITSRGGTTYYADSVKGRFTISRDNEKNTVYLQMNSLKPEDTAVYYCNARGYFGWYAMDYCGQGTQVTVSS	high polyreactivity
QVQLVESGGGLVQAGGSLRLSCAASGFTIYGNAMGWSRQAPGKERELVAAITWRGGSTYYADSVKGRFTISRDNAKNTVYLQMNSLKPEDTAVYYCAARWLLGYYRYDYWGQGTQVTVSS	high polyreactivity
QVQLVESGGGLVQAGGSLRLSCAASGFTIYGYVMGWYRQAPGKERELVAAISWSGGSTYYADSVKGRFTISRDNAKNTVYLQMNSLKPEDTAVYYCAAEGWSDYTSRLYDYWGQGTQVTVSS	low polyreactivity
QVQLVESGGGLVQAGGSLRLSCAASGFTIYNNVMVWYRQAPGKERELVAAITSSGGRTYYADSVKGRFTISRDIAKNTVYLQMNSLKPEDTAVYYCNALYFRKGGYWGQGTQVTVSS	high polyreactivity
QVQLVESGGGLVQAGGSLRLSCAASGFTIYYYAMGWDRQAPGKERELVASITSGGSTYYADSVKGRFTISRDNAKNTVYLQMNSLKPEDTAVYYCAADYYSPSLRYDYWGQGTQVTVSS	low polyreactivity
QVQLVESGGGLVQAGGSLRLSCAASGFTLADNTMGWYRQAPGKERQLVATISSDGNTNYADSVKGRFTISRDNAKNTVYLQMNSLKPEDTAVYYCNAEGVFGDVRSGFYWYDYWGQGTQVTVSS	low polyreactivity
QVQLVESGGGLVQAGGSLRLSCAASGFTLDDNGMGWYRPAPGKECELVESITWSGGSTDYADSVKGRFTISRDTAKNTVYLQMNSLKPEDTAVYSCNVGDPIGGFLSYWGGDYWGQGTQVTVSS	low polyreactivity
QVQLVESGGGLVQAGGSLRLSCAASGFTLFANVMGWYRQAPGKERELVAAISWRSGNTYYADSVKGRFTISRDNAKNTVYLQMNSLKPEDTAVYYCAADTTGDQHSWGTSGIIEGDYWGQGTQVTVSS	low polyreactivity
QVQLVESGGGLVQAGGSLRLSCAASGFTLFQNAMGWYRQAPGKERELVAAISTGGSTYYADSVKGRFTISRDNAKNTVYLQMNSLKPEDTAVYYCAAVWPYRGSRKYYSWGQGTQVTVSS	high polyreactivity
QVQLVESGGGLVQAGGSLRLSCAASGFTLFTNAMGWYRQAPWKERELLARISRGGSTKYADSVKGRFTISRDNAKNTVYLQMNSLKREDTAVYSCATGYYGYRYGYWGQGTQVTVSS	high polyreactivity
QVQLVESGGGLVQAGGSLRLSCAASGFTLGVYTMGGSRQAPGKVRELVARITSGGRTYSADSVKGRFTISRDNAKNSVYLQMNSLQPEDTAVYYCAKVDGRRTYYTVHRYERDYWGQGTQVTVSS	low polyreactivity
QVQLVESGGGLVQAGGSLRLSCAASGFTLIHYAMGWYRQATGKERELVAGITTSGGSTYYADSVKGRFTFSRDNAKNTVYLQMTSLKPEDTAVYYCNRLTRRWYSLRSYDYWGQGTQVTVSS	high polyreactivity
QVQLVESGGGLVQAGGSLRLSCAASGFTLKQYAMGWYRQAPGKERELVAAIRWSGGSTNYADSVKGRFTISRDNAKNTVYLQMNSLKPEDTAVYYCAADFRTPYFGIRYGYWGQGTQVTVSS	high polyreactivity
QVQLVESGGGLVQAGGSLRLSCAASGFTLLGYAMGWYRQAPGKERELVAAISYSGVSTDYADSVKGRFTISRDNAKNTVYLQMNSLKPEDTAVSYCIAVSTDSFLQDYNYWGQGTQVTVSS	low polyreactivity
QVQLVESGGGLVQAGGSLRLSCAASGFTLQQYTMGWYRQAPGKERELVAAISTSGVRTYYADSVKGRFTISRDNAKNTVYLQMNSLKPEDTAVYYCNAKVRKSRFYYWGQGTQVTVSS	high polyreactivity
QVQLVESGGGLVQAGGSLRLSCAASGFTLRVNAMGWYRHPPGKERELVAAISDSGGDTYYADSVKGRFTISRDNAKNTVYLQMNSLKPEDTAVYYCAADDGSENDYWGQGTQVTVSS	low polyreactivity
QVQLVESGGGLVQAGGSLRLSCAASGFTLTQNAMGWYRQAPGKERELVAAISRSGGRTYYADSVKGRFTISRDNAKNTVYLQMNSLKPEDTAVYYCNAYVTYPGTTMDDWGQGTQVTVSS	high polyreactivity

From the nanobody polyreactivity screen of Harvey et al. (2022)
